In article PMC2797393, “Structure of the hDmc1-ssDNA Filament Reveals the Principles of Its Architecture” (PLoS ONE, 2010):

Target: the molecule itself
Experiment: negative-stain electron microscopy with single-particle statistical analysis; hDmc1 10 uM without DNA, 25 mM Tris-acetate pH 7.0, 2 mM ATP, 100 mM NaCl, 1 mM DTT, 2 mM CaCl2, 37 C for 30 min then on ice; eigen images and class averages of ring particles

B1: Human Dmc1 (hDmc1) (natural protein)
chain: MKEDQVVAEEPGFQDEEESLFQDIDLLQKHGINVADIKKLKSVGICTIKGIQMTTRRALCNVKGLSEAKVDKIKEAANKLIEPGFLTAFEYSEKRKMVFHITTGSQEFDKLLGGGIESMAITEAFGEFRTGKTQLSHTLCVTAQLPGAGGYPGGKIIFIDTENTFRPDRLRDIADRFNVDHDAVLDNVLYARAYTSEHQMELLDYVAAKFHEEAGIFKLLIIDSIMALFRVDFSGRGELAERQQKLAQMLSRLQKISEEYNVAVFVTNQMTADPGATMTFQADPKKPIGGHILAHASTTRISLRKGRGELRIAKIYDSPEMPENEATFAITAGGIGDAKE
notes: human Dmc1, a protein of 340 amino acid residues: N-terminal domain 1-81 and core ATPase domain 82-340; Probably the whole 340-residue protein, since both domains (1-81 and 82-340) were docked into the maps; Octameric ring without DNA; helical filament of open length on DNA; also called human meiotic recombinase Dmc1; source: E. coli BLR(DE3), purified (ammonium sulfate precipitation, HisTrap HP, …)
For B1, which “stoichiometry N” value is on record?
The value was 8.
